Results: patent US20190091326A1

Experiments:
[1] = molecular target: MN V1/V2 scaffold, wildtype, gD-tagged, produced in normal 293 HEK cells (herpes simplex virus 1; HIV-1 isolate MN) (UniProt Q69091); assay: ELISA; table row MN V1/V2 wt, column 293
[2] = molecular target: MN V1/V2 scaffold, wildtype, gD-tagged, produced in GnTI- 293 HEK cells (herpes simplex virus 1; HIV-1 isolate MN) (UniProt Q69091); assay: ELISA; table row MN V1/V2 wt, GnTI-
[3] = molecular target: MN V1/V2 scaffold, engineered, gD-tagged, produced in normal 293 HEK cells (herpes simplex virus 1; HIV-1 isolate MN); assay: ELISA; table row MN V1/V2.eng1*, column 293
[4] = molecular target: ZM233 V1/V2 scaffold, wildtype, gD-tagged, produced in normal 293 HEK cells (herpes simplex virus 1; HIV-1 isolate ZM233); assay: ELISA; table row ZM233 V1/V2 wt, column 293
[5] = molecular target: 108060 V1/V2 scaffold, wildtype, gD-tagged, produced in normal 293 HEK cells (herpes simplex virus 1; HIV-1 isolate 108060); assay: ELISA; table row 108060 V1/V2 wt, column 293
CAP.45 V1/V2 wt (GnTI-) = assay: ELISA; table row CAP.45 V1/V2 wt, GnTI-
[6] = molecular target: 108060 I169K/E172V/T161M/N156I/S164G/D167G V1/V2 scaffold, gD-tagged, produced in GnTI- 293 HEK cells (herpes simplex virus 1; HIV-1 isolate 108060); assay: ELISA; table row 108060 V1/V2.eng1*, GnTI-
[7] = molecular target: JRFL-E168K V1/V2 scaffold, wildtype, gD-tagged, produced in GnTI- 293 HEK cells (herpes simplex virus 1; HIV-1 isolate JRFL) (UniProt Q69091); assay: ELISA; table row JRFL-E168K V1/V2 wt, GnTI-
[8] = molecular target: A244 V1/V2 scaffold, wildtype, gD-tagged, produced in normal 293 HEK cells (herpes simplex virus 1; HIV-1 isolate A244) (UniProt Q69091); assay: capture ELISA on 34.1 anti-gD; scaffold made in 293 cells
[9] = molecular target: ZM233 V1/V2 scaffold, engineered, gD-tagged, produced in GnTI- 293 HEK cells (herpes simplex virus 1; HIV-1 isolate ZM233); assay: capture ELISA on 34.1 anti-gD; scaffold made in GnTI- cells
[10] = molecular target: JRFL-E168K V1/V2 scaffold, engineered, gD-tagged, produced in GnTI- 293 HEK cells (herpes simplex virus 1; HIV-1 isolate JRFL); assay: ELISA; table row JRFL-E168K V1/V2.eng1*, GnTI-
[11] = molecular target: 108060 I169K/E172V V1/V2 scaffold, gD-tagged, produced in GnTI- 293 HEK cells (herpes simplex virus 1; HIV-1 isolate 108060); assay: ELISA; table row 108060 V1/V2 I169K/E172V, GnTI-
[12] = molecular target: A244 V1/V2 scaffold, wildtype, gD-tagged, produced in GnTI- 293 HEK cells (herpes simplex virus 1; HIV-1 isolate A244) (UniProt Q69091); assay: capture ELISA on 34.1 anti-gD; scaffold in medium of GnTI- cells
[13] = molecular target: ZM233 V1/V2 scaffold, wildtype, gD-tagged, produced in GnTI- 293 HEK cells (herpes simplex virus 1; HIV-1 isolate ZM233); assay: as above
[14] = molecular target: 108060 I169K/E172V/T161M/N156I V1/V2 scaffold, gD-tagged, produced in normal 293 HEK cells (herpes simplex virus 1; HIV-1 isolate 108060); assay: ELISA; table row 108060 I169K/E172V/T161M/N156I, column 293
[15] = molecular target: A244 V1/V2 scaffold, engineered, Strep-tag/6x Histidine-tag, produced in normal 293 cells (HIV-1 isolate A244); assay: SPR (Biacore 3000), PG9 captured by anti-human Fc, scaffold flowed
[16] = molecular target: A244 V1/V2 scaffold, wildtype (unmutated), Strep-tag/6x Histidine-tag, expressed in GnTI- cells (HIV-1 isolate A244); assay: as above
[17] = molecular target: 108060 I169K/E172V/T161M/N156I/S164P/L165G V1/V2 scaffold, gD-tagged, produced in normal 293 HEK (293F) cells (herpes simplex virus 1; HIV-1 isolate 108060); assay: capture ELISA on 34.1 anti-gD; purified scaffold made in 293F cells
[18] = molecular target: 1209 V1/V2/V3/C3 scaffold grown in GnTI- cells; assay: ELISA, mAb titrated on scaffold, absorbance 492 nm; curve 505 (1209 GNTI-)
[19] = molecular target: 108060 V1/V2 scaffold, mutant, Strep-tag/6x Histidine-tag, expressed in 293F cells (HIV-1 isolate 108060); assay: SPR (Biacore 3000), PG9 captured by anti-human Fc, scaffold flowed, 1:1 Langmuir fit
[20] = molecular target: A244 V1/V2 scaffold, engineered, Strep-tag/6x Histidine-tag, produced in normal 293 cells (HIV-1 isolate A244); assay: as above
[21] = molecular target: MN V1/V2 scaffold, mutant, Strep-tag/6x Histidine-tag, expressed in 293F cells (HIV-1 isolate MN) (UniProt P05877); assay: as above
[22] = molecular target: ZM233 V1/V2 scaffold, engineered, Strep-tag/6x Histidine-tag, expressed in normal 293 cells (HIV-1 isolate ZM233); assay: as above
[23] = molecular target: A244-rgp120 grown in GnTI- cells (HIV-1 isolate A244); assay: ELISA, mAb titrated on gp120, absorbance 492 nm; curve 495 (A244 gp120 GNTI-)

Q: What does the source list for PG9 monoclonal antibody?
A: EC50 [1]: > 10 µg/mL; EC50 [2]: > 10 µg/mL; EC50 [3]: 0.0274 µg/mL; EC50 [4]: 0.077 µg/mL; EC50 [5]: > 10 µg/mL; EC50 (CAP.45 V1/V2 wt (GnTI-)): 0.0527 µg/mL; EC50 [6]: 0.00685 µg/mL; EC50 [7]: > 10 µg/mL; EC50 [8]: 0.893 µg/mL; EC50 [9]: 0.01 µg/mL; EC50 [10]: 0.013 µg/mL; EC50 [11]: 0.113 µg/mL; EC50 [12]: 0.00074 µg/mL; EC50 [13]: 0.0095 µg/mL; EC50 [14]: 0.599 µg/mL; koff [15]: 0.0019 s⁻¹; koff [16]: 0.00077 s⁻¹; EC50 [17]: 0.156 µg/mL; EC50 [18]: 0.14 µg/mL; Kd [19]: 0.074 µM; Kd [20]: 0.049 µM; Kd [21]: 0.118 µM; Kd [22]: 0.033 µM; EC50 [23]: 0.02 µg/mL
